Common to all, as to experiment: FP displacement
The target in one assay is T1, USP19 (Homo sapiens (Human), UniProt O94966).
T1 chain: PFQPGRMALESQSPG

The target of another assay is T2, ROBO1 (Homo sapiens (Human), UniProt Q9Y6N7).
T2 chain: AQSKTQLEVRPV

The target of a further assay is T3, IRAG1 (Homo sapiens (Human), UniProt Q9Y6F6).
T3 chain: TNSSGKMALNSPQPG

A further assay concerns the target T4, CEP192 (Homo sapiens (Human), UniProt Q8TEP8).
T4 chain: LQPSSKASLESTSDL

Another assay addresses T5, MFSD2B (Homo sapiens (Human), UniProt A6NFX1).
T5 chain: DVVDDFQLQHRHGPG

The target in the next assay is T6, HIF1A (Homo sapiens (Human), UniProt Q16665).
T6 chain: PYIPMDDDFQLRSFDQLS

The target in another assay is T7, CCDC88B (Homo sapiens (Human), UniProt A6NC98).
T7 chain: QLEEELFQLRQGPAG

The values that follow come from PMC13376213 (2026).

B1: USP33 (protein)
chain: RNHCPHLDSVGEITKEDLIQKSLGTCQDCKVQGPNLWACLENRCSYVGCGESQVDHSTIHSQETKHYLTVNLTTLRVWCYACSKEVFLDRKLGTQ
The term Kd denotes the free concentration of one partner at which half of the binding sites on the other are occupied at equilibrium, for simple one-to-one binding. A lower Kd goes with higher affinity. Turning to B1, the Kd is 40.6 µM with USP19, 14 µM with ROBO1, 7.86 µM with IRAG1 and 14.1 µM with CEP192.

B2: USP33 (protein)
chain: HLYICHTCQIEAEKIEKRRKTELEIFIRLNRAFQKEDSPATFYCISMQWFREWESFVKGKDGDPPGPIDNTKIAVTKCGNVMLRQGADSGQISEETWNFLQSIYGGGPEVILRPPV
On to B2, for which the equilibrium dissociation constant (Kd) with MFSD2B amounted to 0.75 µM; with HIF1A, 1.5 µM; with CCDC88B, 40.1 µM.
